Results taken from US20240343803A1 (SHANDONG SIMCERE BIOPHARMACEUTICAL, published 2024).

Assays:
[1] = molecular target: T1, human PVRIG-his (AcroBiosystems, Cat NO. PVG-H52H4) (human, UniProt Q6DKI7 41-171, limits assumed); experiment: ELISA, coated human PVRIG-his
T1 construct: Bought reagent; also called human PVRIG protein
T1 sequence (looked up): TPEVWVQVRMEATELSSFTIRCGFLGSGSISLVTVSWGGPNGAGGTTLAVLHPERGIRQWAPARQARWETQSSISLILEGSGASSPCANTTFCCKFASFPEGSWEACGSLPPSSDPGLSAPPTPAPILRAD
Procedure: (§1) The ELISA plate was pre-coated with 100 μL/well of 0.5 μg/mL human PVRIG-his (AcroBiosystems, Cat NO. PVG-H52H4) or cynomolgus monkey PVRIG (Novoprotein, Cat NO. C09B). […] A HRP substrate, TMB (Thermo, Cat NO. 34029) was added into wells after washing the plate again for color development. After adding a termination solution to terminate the reaction, the absorbance value was read by a microplate reader (MD i3×). An antibody binding curve was drawn with concentration of antibodies as the abscissa and the corresponding OD value as the ordinate. The EC50 value was calculated by using a Four Parameter Logistic Fit (GraphPadPrism9). The smaller the EC50 value, the stronger the ability of the antibodies binds to human or cynomolgus monkey PVRIG. The positive control antibodies are COM701-hIgG1 (Patent No.:US20180244774A1), COM701-hIgG4 (patent No.: US20180244774A1) and SRF813-hIgG1 (Patent No.:US20200040081A1); and the negative control antibodies are anti-HA HcAb-hIgG1 (Chengdu NB Biolab, Cat NO. NBR022), anti-CD38 HcAb-hIgG1 (in-house) and anti-Fluorescein-hIgG1 (in house).

[2] = molecular target: T2, cynomolgus monkey PVRIG (Novoprotein, Cat NO. C09B) (cynomolgus monkey, UniProt A0A2K5WVV8 41-171); experiment: ELISA, coated cynomolgus monkey PVRIG
T2 construct: Bought reagent; also called cynomolgus monkey PVRIG protein
T2 sequence: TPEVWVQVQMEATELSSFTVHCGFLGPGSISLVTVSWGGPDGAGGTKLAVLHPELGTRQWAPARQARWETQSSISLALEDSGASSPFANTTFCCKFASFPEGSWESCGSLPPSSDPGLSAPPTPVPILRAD
Procedure: as §1

[3] = molecular target: T3, human PVRIG on FlpinCHO-PVRIG cells (human, UniProt Q6DKI7 41-326); experiment: FACS, FlpinCHO-PVRIG cells; AUC of MFI curve relative to SRF813-hIgG1
T3 construct: whole, on cells
T3 sequence (looked up): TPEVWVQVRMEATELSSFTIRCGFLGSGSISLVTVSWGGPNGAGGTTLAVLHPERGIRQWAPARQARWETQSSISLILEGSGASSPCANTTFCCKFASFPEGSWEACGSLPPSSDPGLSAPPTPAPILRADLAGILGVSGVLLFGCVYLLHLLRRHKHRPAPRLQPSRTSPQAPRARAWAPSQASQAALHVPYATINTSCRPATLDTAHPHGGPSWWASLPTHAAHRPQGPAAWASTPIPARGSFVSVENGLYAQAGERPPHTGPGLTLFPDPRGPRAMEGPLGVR
Procedure: (§2) The Ham's F12 (Gibico, 21127-022) complete medium containing 10% FBS was then added to terminate the digestion and acquire cell suspension. After counting with a cell counter (Beckman Coulter, Vi-CELL), an appropriate amount of cell suspension was centrifuged at 350×g to remove the supernatant, washed twice with PBS, stained with Zombie violet (Biolegend, 423114) and incubated at room temperature for 20 minutes. After incubation, the cells were added with staining buffer (2% FBS+PBS) to stop staining, centrifuged at 350×g to remove the supernatant, washed twice and resuspended with staining buffer to a density of 2×10⁶ cells/mL. The cells were plated into a 96-well plate (50 μL of cell suspension per well) for further use. The antibodies were diluted from the highest concentration of 46 nM (two-fold concentration) with staining buffer by 3.3-fold serial dilution. The diluted antibodies were added to the well containing 50 μL of cell suspension. The plate was placed on a microplate shaker at 400 rpm for 1 minute to fully mix the antibodies and cells, and then incubated at 4° C. for 30 minutes. After the incubation, the cells were washed twice with staining buffer (200 μL per well) and centrifuged at 350×g for 5 minutes to discard the supernatant. The PE goat anti-human IgG Fc antibody (ebioscience, 12-4998-82) was diluted 250 times with staining buffer, added into the washed wells (100 μL per well), mixed well, and stained at 4° C. for 30 minutes. After staining, the cells were washed twice with staining buffer, finally resuspended with 200 μL staining buffer and analyzed by flow cytometry (BD, Canto II). The stronger the signal, the stronger the ability of the antibodies binds to PVRIG. An antibody binding curve was drawn with concentration of antibodies as the abscissa and the corresponding Mean Fluorescence Intensity (MFI) as the ordinate. The AUC value of the curve was calculated by using a Four Parameter Logistic Fit (GraphPadPrism9). The stronger the AUC value, the stronger the ability of the antibodies binds to FlpinCHO-PVRIG and FlpinCHO-cyno PVRIG. […] The binding activity of the antibodies was normalized to the positive control COM701-hIgG1 and SRF813-hIgG1.

[4] = molecular target: T3, human PVRIG on FlpinCHO-PVRIG cells; experiment: FACS, FlpinCHO-PVRIG cells; AUC of MFI curve relative to COM701-hIgG1
Procedure: as §2

[5] = molecular target: T4, cynomolgus monkey PVRIG on FlpinCHO-cyno PVRIG cells (cynomolgus monkey, UniProt A0A2K5WVV8 41-322); experiment: FACS, FlpinCHO-cyno PVRIG cells; AUC of MFI curve relative to COM701-hIgG1
T4 construct: whole, on cells
T4 sequence: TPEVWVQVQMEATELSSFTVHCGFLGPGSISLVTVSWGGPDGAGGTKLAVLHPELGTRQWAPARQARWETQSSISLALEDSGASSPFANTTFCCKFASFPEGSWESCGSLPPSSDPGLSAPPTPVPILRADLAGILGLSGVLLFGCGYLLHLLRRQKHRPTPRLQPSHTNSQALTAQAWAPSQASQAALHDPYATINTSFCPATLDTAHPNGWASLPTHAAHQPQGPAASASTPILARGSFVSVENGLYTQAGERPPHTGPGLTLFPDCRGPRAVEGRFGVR
Procedure: as §2

[6] = molecular target: T4, cynomolgus monkey PVRIG on …; experiment: FACS, FlpinCHO-cyno PVRIG cells; AUC of MFI curve relative to SRF813-hIgG1
Procedure: as §2

[7] = molecular target: T5, human PVRIG-mFc protein (Acro, PVG-H5253) (human, UniProt Q6DKI7 41-171, limits assumed); experiment: FACS competition, PVRIG-mFc binding to CHO-K1-CD112 cells, competitor CD112 on cells
T5 construct: bought protein
T5 sequence (looked up): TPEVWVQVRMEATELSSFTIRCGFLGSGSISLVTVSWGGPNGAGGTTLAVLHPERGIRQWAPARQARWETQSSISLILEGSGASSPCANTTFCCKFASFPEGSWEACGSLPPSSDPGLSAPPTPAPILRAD
Procedure: A working solution of human PVRIG-mFc protein (Acro, PVG-H5253) prepared with staining buffer, 1 μg/mL (four-fold concentration), was added into a 96-well plate (50 μL PVRIG-mFc working solution per well). […] The diluted antibodies were added to the well containing 50 μL of PVRIG-mFc. The plate was placed on a microplate shaker at 400 rpm for 1 minute to fully mix the antibodies and PVRIG-mFc proteins, and then incubated at 4° C. for 30 minutes. After the incubation, the cell suspension prepared above (100 μL) was added into the wells, gently mixed with the pipette tip and incubated at 4° C. for 30 minutes. After the incubation, the cells were washed twice with staining buffer (200 μL per well) and centrifuged at 350×g for 5 minutes to discard the supernatant. The PE goat anti-mouse IgG Fc antibody (Biolegend, 405337) was diluted 250 times with staining buffer, added into the washed wells (100 μL per well), mixed well, and stained at 4° C. for 30 minutes. After staining, the cells were washed twice with staining buffer, finally resuspended with 200 μL staining buffer and analyzed by flow cytometry (BD, Canto II). The weaker the fluorescence signal, the stronger the ability of the antibodies blocks the binding of CHO-K1 human CD112 cells to the PVRIG-mFc protein. An antibody binding curve was drawn with concentration of antibodies as the abscissa and the corresponding Mean Fluorescence Intensity (MFI) as the ordinate. The IC50 value of the antibodies and the AUC value of the binding curve were calculated by using a Four Parameter Logistic Fit (GraphPadPrism9). The smaller the IC50 value and AUC value, the stronger the ability of the antibodies competes with CHO-K1-CD112 cells to bind to human PVRIG-mFc protein. […] […] The smaller the percentage value, the stronger the blocking ability of the antibodies.

[8] = molecular target: T6, human PVRIG-his (AcroBiosystems, Cat NO. PVG-H52H4) (human, UniProt Q6DKI7 41-171, limits assumed); experiment: SPR (BIAcore), antibody captured on Protein A chip, human PVRIG-His analyte
T6 construct: also called human PVRIG protein
T6 sequence (looked up): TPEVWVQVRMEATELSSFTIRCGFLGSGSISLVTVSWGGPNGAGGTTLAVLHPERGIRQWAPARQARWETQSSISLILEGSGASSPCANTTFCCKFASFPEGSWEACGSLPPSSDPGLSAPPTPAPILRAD
In short: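 Anti-PVRIG antibody captured on a Protein A chip to about 50 RU Rmax, then human PVRIG-His injected at graded concentrations in multi-cycle kinetics (association and dissociation). Chip regenerated with glycine pH 1.5 between cycles; affinity derived from the fitted kinetics.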

[9] = molecular target: T6, human PVRIG-his (AcroBiosystems, Cat …); experiment: competition ELISA, PVRIG-His coated, competitor human PVRL2-mFc
Procedure: The ELISA plate was pre-coated with 100 μL/well of 0.5 μg/mL human PVRIG-his protein (AcroBiosystems, Cat NO. PVG-H52H4). The tested anti-PVRIG antibodies were diluted from the highest concentration of 16 nM (two-fold concentration). The diluted antibodies were mixed with 18 ng/ml human PVRL2-mFc (AcroBiosystems, Cat NO. CD2-H5257) in equal volume, added into the plate (100 μL/well), and incubated with shaking at room temperature for 2.0 hours. […] A HRP substrate, TMB (Thermo, Cat NO. 34029) was added into wells after washing the plate again for color development. After adding a termination solution to terminate the reaction, the absorbance value was read by a microplate reader (MD i3×). An inhibiting curve was drawn with concentration of antibodies as the abscissa and the corresponding OD value as the ordinate. The IC50 value was calculated by using a Four Parameter Logistic Fit (GraphPadPrism9). The smaller the IC50 value, the stronger the ability of the antibodies inhibits the binding between PVRIG and PVRL2. The positive and negative controls are the same as in Example 8.

Binder	EC50 [1]	EC50 [2]	% AUC to SRF813-hIgG1 [3]	% AUC to COM701-hIgG1 [4]	% AUC to COM701-hIgG1 [5]	% AUC to SRF813-hIgG1 [6]	% AUC to COM701-hIgG4 [7]	% AUC to SRF813-hIgG1 [7]	% IC50 to COM701-hIgG4 [7]	% IC50 to SRF813-hIgG1 [7]	Kd [8]	koff [8]	kon [8]	IC50 [9]
PVRIG-A35 (Fc fusion, heavy chain antibody VHH-hinge-CH2-CH3, human IgG1 constant part; not shown: human IgG1 hinge-CH2-CH3) EVQVVESGGGLVQSGGSLRLSCAASGRTRSMYVMGWFRQAPGKEREFVGRIKWSGDTTYTSYADFVKGRFTLYGNQARNTVYLQMNSLKPEDTAVYYCNGRSRFNVINAWGTGTLVTVAS							145%	126%	138%	136%	0.846 nM	7.53e-06 s⁻¹	8900 M⁻¹ s⁻¹	0.0543 nM
PVRIG-A104 (Fc fusion, heavy chain antibody VHH-hinge-CH2-CH3, human IgG1 constant part; not shown: human IgG1 hinge-CH2-CH3) EVQVVESGGGLVQAGGSLRLSCAASGRTRSMYVMGWFRQAPGKEREFVGRIKWSGDTTYTSYADFVKGRFTLYGNQARNTVYLQMNSLKPEDTAVYYCYRRSWTNTKLYWGKGIQVTVSS							152%	111%	118%	116%	0.0276 nM	4.24e-06 s⁻¹	154000 M⁻¹ s⁻¹	0.0659 nM
PVRIG-A43 (Fc fusion, heavy chain antibody VHH-hinge-CH2-CH3, human IgG1 constant part; not shown: human IgG1 hinge-CH2-CH3) QVQLVESGGGLVQSGGSLRLSCAASGRTRSMYVMGWFRQAPGKEREFVGRIKWSGDTTYTSYADFVKGRFTLYGNQARNTVYLQMNSLKVEDTAVYYCAGRVVPLPSRQRDRYDYWGQGTQVTVSS							128%	111%	121%	119%	0.366 nM	8.58e-06 s⁻¹	23400 M⁻¹ s⁻¹	0.0537 nM

Now from value to binder:

EC50 [1]	EC50 [2]	% AUC to SRF813-hIgG1 [3]	% AUC to COM701-hIgG1 [4]	% AUC to COM701-hIgG1 [5]	% AUC to SRF813-hIgG1 [6]	% AUC to COM701-hIgG4 [7]	% AUC to SRF813-hIgG1 [7]	% IC50 to COM701-hIgG4 [7]	% IC50 to SRF813-hIgG1 [7]	Kd [8]	koff [8]	kon [8]	IC50 [9]	Binder
0.0571 nM	0.0192 nM	162%	123%	122%	157%									PVRIG-A105 (Fc fusion, Alpaca VHH joined to human IgG1 Fc (VHH-hinge-CH2-CH3); not shown: human IgG1 hinge-CH2-CH3) EVQLVESGGGLVQAGGSLRLSCAASGRTFDRHTMTWFRQAPGKEREFVATASRIPGDTYYSHSVKGRFTISRDNAKNTVYLQLNNLKPEDTAVYYCAATSAYCSEVDCYEKGSWYDNWGQGIQVTVSS
						130%	72.7%	134%	118%	0.367 nM	0.00137 s⁻¹	3.74e+06 M⁻¹ s⁻¹	0.0528 nM	PVRIG-A117 (Fc fusion, heavy chain antibody VHH-hinge-CH2-CH3, human IgG1 constant part; not shown: human IgG1 hinge-CH2-CH3) EVQVVESGGGLVQAGGSLRLSCTASEHIYDLYIMGWYRQAPGKDRELVATITYTGSIYIADSVKDRFTISRGNAKNTVSLQMSGLKPEDTAVYYCNADPSGLGRKLYWGQGTQVTVSS
						172%	106%	124%	97.9%	0.203 nM	8.96e-05 s⁻¹	442000 M⁻¹ s⁻¹	0.092 nM	PVRIG-A113 (Fc fusion, heavy chain antibody VHH-hinge-CH2-CH3, human IgG1 constant part; not shown: human IgG1 hinge-CH2-CH3) QLQLVESGGGLVQSGGSLRLSCAASGRTRSMYVMGWFRQAPGKEREFVGRIKWSGDTTYTSYADFVKGRFTLYGNQARNTVYLQMNSLKPEDTAVYYCAALPSDYDYRAASYGVDYWGKGTLVTVSS
